Results reported in publication doi:10.1101/2025.07.25.666786.
pKd: −log10 of the molar value.

Experiments:
[1] = biological target: CrAPE1 C128S mutant, recombinant soluble region of the DUF2854 of APE1 from Chlamydomonas reinhardtii (Chlamydomonas reinhardtii); assay: SEC-MALS
[2] = biological target: Plastid Copper Chaperone 1 (PCC1) from Chlamydomonas reinhardtii, recombinant, produced in the presence of Cu (Chlamydomonas reinhardtii)
[3] = biological target: CrAPE1 C128S mutant, recombinant soluble region of the DUF2854 of APE1 from Chlamydomonas reinhardtii (Chlamydomonas reinhardtii); assay: MST

| Substance | stoichiometry N [1] | stoichiometry N [2] | pKd [3] |
| --- | --- | --- | --- |
| CrAPE1 C128S mutant, recombinant soluble region of the DUF2854 of APE1 from Chlamydomonas reinhardtii (domain or fragment) | 2 |  |  |
| Plastid Copper Chaperone 1 (PCC1) from Chlamydomonas reinhardtii, recombinant, produced in the presence of Cu (natural protein) |  | 2 | 7.41 |
